This is an account of results in the nanobody polyreactivity screen of Harvey et al. (2022).

The series in a line: yeast display, Sf9 membrane polyspecificity reagent, FACS + sequencing; frameworks hold sequencing errors. In outline: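 Galactose-induced (36–48 hours) yeast carrying a synthetic nanobody display library were exposed to 10% biotinylated, detergent-solubilized Sf9 membrane reagent at 4 °C for 1 hour. FACS followed streptavidin microbead enrichment, using low and high (top ~1%) gates for expression (anti-HA) and reagent binding (streptavidin). Colony PCR, MiSeq 2 × 250 sequencing and CDR-length filtering followed. Labels for polyreactivity reflect the gate of origin.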
Consider “QVQLVESGGGLVQAGGSLRLSCASSGITFRYYAMGWYRQAPGKERELVAAITWSGGSTYYADSVKGRFTISRDNAKNTVYLQMNSLKPEDTAVYYCAADAYVLFYGDWYEFDYWGQGTQVTVSS”, for which the “polyreactivity (PSR sort gate)” value was “high polyreactivity”.
Regarding “QVQLVESGGGLVQAGGSLRLSCASSGITFSFYVMGWYRQAPGKERELVAAISRGGSTYYADSVKGRFTISRDNANNTVYLQMNSLKPEDSAVYYCAAVRLSRVYYWGQGTQVTVSS”, the “polyreactivity (PSR sort gate)” value was “high polyreactivity”.
For “QVQLVESGGGLVQAGGSLRLSCASSGLIFPYNAMGWYRKAPGKERELVAAIDSGVTTYYADSVKGRFTISRDNAKNTVYLQMNSLKPEDTAVYYCAAVGLPGPEGDSWGQGTQVTVSS”, the “polyreactivity (PSR sort gate)” value is “low polyreactivity”.
Turning to “QVQLVESGGGLVQAGGSLRLSCASSGLIIDYYAMGWYRQAPGKERELVAAITSSSGITYYADSVKGRFTISRDNAKNTVYLQMNSLKPEDNAVYYCAAYTTYKLYEYAYWGQGTQVTVSS”, the “polyreactivity (PSR sort gate)” value is given as “low polyreactivity”.
The same measure for “QVQLVESGGGLVQAGGSLRLSCASSGNIFRYYVMGWYRKAPGKEREFVAAITSSGGSTYYADSVKGRFTISRDNAKNTVYFQINSLKPDDSEVYYCAKDYWDPGWAEYDYWGQCTQVTVSS”: “low polyreactivity”.
The value for “QVQLVESGGGLVQAGGSLRLSCASSGNIFYLYAKGWYRQARGKERELVAAIRGSGSTYYADSVKGRFTISRDNAKNTVYLQMNSLKPEDTAVYYCNARVRSQYLYSGTALGYYYWGQGTQVTVSS” was “high polyreactivity”.
The value for “QVQLVESGGGLVQAGGSLRLSCASSGPTFNEYAMAWYRQAPRKERELVARITRGGSTYYADSVKGRFTISRDNAKNTFYFQINSLIPEDTAVYEFAADLSLLYGGYWITDYDYWVQGTQVTVSS” was “low polyreactivity”.
Consider “QVQLVESGGGLVQAGGSLRLSCASSGRIFAHNAMGWYSQAPGKERELVAAINSGGSTDYADSVKGRFTISRDNAKNTVYLQMNSLKPEDTAVYYCAADDPGSFPDDSWGQGTQGTVSS”, for which the “polyreactivity (PSR sort gate)” value is recorded as “low polyreactivity”.
The same measure for “QVQLVESGGGLVQAGGSLRLSCASSGRIFFKYAMGWYRQARGKERELLATITWRGSSTYYADSVKWRFTISRDNAKNTVYFQMNSLKPEDTAVYYCAAVAAWWYHQGVRYDYWGQGSQVTVSS”: “high polyreactivity”; for “QVQLVESGGGLVQAGGSLRLSCASSGRIFRWYAMGWYRQAPGKERELVAAISRSGTSTYYADSVKGRFTISRDNAKNTVFLQMNSLKPEDTAVYYCNTDVQVYSYNYWGQGTQVTVSS”: “low polyreactivity”.
The value for “QVQLVESGGGLVQAGGSLRLSCASSGRIFSGNAMAWYRQAPGKEMEFVASISRSGGRTRYADSVKGRFTISRDNAKNTVYLQMNSLKPEDTAVYYCAADRSRRGHLTHGYWGQGTQVTVSS” was “high polyreactivity”; that for “QVQLVESGGGLVQAGGSLRLSCASSGRIFSQNAMGWYRQAPGKERELVAAISGGSTNYADSVKGRFTISRDNAKNPVYLQMNSLKPEDTAVYYCAADAPFKMDYWGQGTQVTVSS” was “low polyreactivity”.
The value for “QVQLVESGGGLVQAGGSLRLSCASSGRISASYAMGWYRQAPGKERELVAAITGSGGSTYYADSVKGRFTISRDNAKNTVYLQMNSLKPEDTAVYYCAAEPGLSVFFEFDSWGQGTQVTVSS” was “low polyreactivity”.
Regarding “QVQLVESGGGLVQAGGSLRLSCASSGRTFAYNALGWYREAPGKERELVAAISASGGSTYYADSVKGRFTISRDNAKNTVYLQMNSLKPEDTAVYYCAAYVRSAYYAIHVDYWGQGTQVTVSA”, the “polyreactivity (PSR sort gate)” value was “low polyreactivity”.
For “QVQLVESGGGLVQAGGSLRLSCASSGRTFNFYAMGWYRQAPGKERELVAAISHGDSTYYADSVKGRFTISRDNAKNTVYLQMNSLKPEDTAVYYCAASQKYYLLKYEYWGQGTQVTVSS”, the “polyreactivity (PSR sort gate)” value was “low polyreactivity”.
The value for “QVQLVESGGGLVQAGGSLRLSCASSGRTFPGNAMGWYRQAPGKERELVAAISWSGTRTYYADSVKGRFTISRDNAKNTVYLQMNSLKPEDTAVYYCNVVVKGAWDYYPYAYWGQGTQVTVSA” was “high polyreactivity”; that for “QVQLVESGGGLVQAGGSLRLSCASSGRTFQVNAMGWYRQAPGKERELVAAISASDGSTYADSVKGRFTISRDNAKNTVYLQMNSLKPEDTAVYYCNKAAYGGHRTSEQVGWVYLYDYWGQGTQVTVSS” was “low polyreactivity”; that for “QVQLVESGGGLVQAGGSLRLSCASSGRTFRSYAMGWYRQAPGKERELVAAITYSGGNTYYADSVKGRFTISRDNAKNTVYLQMNSLKPEDTAVYYCAYLKTPRGYDYWGQGTQVTVSS” was “high polyreactivity”.
On to “QVQLVESGGGLVQAGGSLRLSCASSGRTFYINAMVWYRQAPGKERELVAAISIRGGRTYYADSVKGRFTISRDNAKNTVYLQMISLKPEDTAVYYCAADYGSLRQRTLYEYWGQGTQVTVSS”, for which the “polyreactivity (PSR sort gate)” value was “low polyreactivity”.
The same measure for “QVQLVESGGGLVQAGGSLRLSCASSGRTISHNAMGWYRQAPGKERELVAAISRSGGRTYYADSVKGRFTISRYNAKNTVYLQMNSLKPEDTAVYYCAAEYFDGSTYSYYYWGQGTQVTVSS”: “high polyreactivity”; for “QVQLVESGGGLVQAGGSLRLSCASSGSIFGSNAMGWYRQAPVKERELVAAITWSDGSTYYADSVKGRFTISRDNAKNTVYLQMNSLKPEDTAVYYCAVVWRGGYRWPYEYWGQGTQVTVSS”: “low polyreactivity”.
For the sequence “QVQLVESGGGLVQAGGSLRLSCASSGSIFKAYAMGLSRQAPGKERELVAAIRGSGGRTYYADSVKGRFTISRDYAKNTVYLQMNSLKPEDTAVYYCNTVRSTPNGLDYDYWGQGTQVTVSS”, the “polyreactivity (PSR sort gate)” value is listed as “low polyreactivity”.
The same measure for “QVQLVESGGGLVQAGGSLRLSCASSGSIFNYNSMGGYRQAPGKERELVAGITTSGGSTYYADSVKGRFTISRDNAKNTVYLQMNSLKPEDTAVYYCAGYDYISSTYFLDDFWGQGSQVTVSS”: “low polyreactivity”.
The value for “QVQLVESGGGLVQAGGSLRLSCASSGSIFPEYDMVWYRQAPGKERELVASISSGGSSTYYADSVKGRFTISRDNAMNTVYLQMNSLKPEATAVYYCARRRSYKRGFDYWGQGTQVTVSS” was “low polyreactivity”; that for “QVQLVESGGGLVQAGGSLRLSCASSGSIFQYYVMGWYRPAPGKERELVAAMRRSGTTYYADSVKGRFTISRDNAKHTLDLQMNSLKPEDTAVYYCNKVRGQEPSNYDYWGQGTQVTVSS” was “low polyreactivity”; that for “QVQLVESGGGLVQAGGSLRLSCASSGSIFRYNAMGWYRQAPGKEREFVAAISYSGGRTYYADSLKGRFTISRDNAKNNVYLQMNIQKPEDTAVYYCAARLKRPFSGYDNWGQGTQVSVSS” was “high polyreactivity”.
In the case of “QVQLVESGGGLVQAGGSLRLSCASSGSIFYDNAMGWYRQAPGKDRELVAAITVTGGSTYYADSVKGRFTISRDNAKNTVYLQMNSLKPEDTAVFYCAADPDYFDYWGQGTQVTVSS”, the “polyreactivity (PSR sort gate)” value was “low polyreactivity”.
The value for “QVQLVESGGGLVQAGGSLRLSCASSGSIFYVYAMGWYRQAPGKERELVATIDWSGGSTYYADSVKGRFTISRDNAKNTVYLQMNSLKPEDTAVYYCAAYGLYGYRRRYRVSFTPYDYWGQGTQVNVSS” was “low polyreactivity”; that for “QVQLVESGGGLVQAGGSLRLSCASSGSISAVNTMGWYRQAPGKERELVATISYSTASTYYADSVKGRFTMSRDNAKKTVYLQMNSLKPEDTAVYYCNKDGRWYAYNSEYDHWGQGTQVTVSS” was “low polyreactivity”.
“QVQLVESGGGLVQAGGSLRLSCASSGSTFKYYAMGWYRQAPGKERELVAAISSGGSTYYADSVKGRFTISRDNAKNTVYLLMNSLKPEDTAVYDCAARGYYGNFSGSGYWGQGTQVTVSS”: the “polyreactivity (PSR sort gate)” value is recorded as “high polyreactivity”.
